Series [1] deals with nucleosome (of the N-parp/nucleosome complexes, data not shown). Description: SEC-MALS.
For series [2], the target named is N-parp (N-terminal half of PARP-1, amino acids 1-486) (human) (UniProt P09874). Description: FRET or BRET.
The target in series [3] is full-length human PARP-1 [change] (human) (UniProt P09874). Description: FRET or BRET.
For series [4], the target named is N-parp (Zn1-Zn3 and BRCT) (UniProt P09874). Put plainly: HI-FI FRET.
Series [5] deals with PARP-1 (full-length) V762A (human) (UniProt P09874). Description: HI-FI FRET.
Series [6] deals with Nuc165, unlabeled mononucleosome on 165-bp 601 DNA. Description: SEC-MALS.
For series [7], the target named is Nuc207, mononucleosome on 207-bp 601 DNA as used for SEC-MALS. Put plainly: SEC-MALS.

Chain of N-parp (Zn1-Zn3 and BRCT) (P09874 1-486): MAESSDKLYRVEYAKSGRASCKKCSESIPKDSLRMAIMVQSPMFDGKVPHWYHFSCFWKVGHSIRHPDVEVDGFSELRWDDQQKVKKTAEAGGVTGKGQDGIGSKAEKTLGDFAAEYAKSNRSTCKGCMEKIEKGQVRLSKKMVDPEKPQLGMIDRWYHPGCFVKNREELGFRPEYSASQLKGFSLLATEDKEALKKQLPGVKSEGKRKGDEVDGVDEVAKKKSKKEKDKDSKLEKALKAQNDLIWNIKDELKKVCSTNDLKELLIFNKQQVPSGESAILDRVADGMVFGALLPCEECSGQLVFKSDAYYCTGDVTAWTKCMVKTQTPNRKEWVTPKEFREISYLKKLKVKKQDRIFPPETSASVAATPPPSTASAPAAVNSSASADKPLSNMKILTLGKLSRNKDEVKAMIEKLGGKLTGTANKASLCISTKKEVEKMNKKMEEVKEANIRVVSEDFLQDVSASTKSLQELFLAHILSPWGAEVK
Chain of N-parp (N-terminal half of PARP-1, amino acids 1-486) (human) (P09874 1-486): as above
Chain of PARP-1 (full-length) V762A (human) (P09874 whole entry V762A): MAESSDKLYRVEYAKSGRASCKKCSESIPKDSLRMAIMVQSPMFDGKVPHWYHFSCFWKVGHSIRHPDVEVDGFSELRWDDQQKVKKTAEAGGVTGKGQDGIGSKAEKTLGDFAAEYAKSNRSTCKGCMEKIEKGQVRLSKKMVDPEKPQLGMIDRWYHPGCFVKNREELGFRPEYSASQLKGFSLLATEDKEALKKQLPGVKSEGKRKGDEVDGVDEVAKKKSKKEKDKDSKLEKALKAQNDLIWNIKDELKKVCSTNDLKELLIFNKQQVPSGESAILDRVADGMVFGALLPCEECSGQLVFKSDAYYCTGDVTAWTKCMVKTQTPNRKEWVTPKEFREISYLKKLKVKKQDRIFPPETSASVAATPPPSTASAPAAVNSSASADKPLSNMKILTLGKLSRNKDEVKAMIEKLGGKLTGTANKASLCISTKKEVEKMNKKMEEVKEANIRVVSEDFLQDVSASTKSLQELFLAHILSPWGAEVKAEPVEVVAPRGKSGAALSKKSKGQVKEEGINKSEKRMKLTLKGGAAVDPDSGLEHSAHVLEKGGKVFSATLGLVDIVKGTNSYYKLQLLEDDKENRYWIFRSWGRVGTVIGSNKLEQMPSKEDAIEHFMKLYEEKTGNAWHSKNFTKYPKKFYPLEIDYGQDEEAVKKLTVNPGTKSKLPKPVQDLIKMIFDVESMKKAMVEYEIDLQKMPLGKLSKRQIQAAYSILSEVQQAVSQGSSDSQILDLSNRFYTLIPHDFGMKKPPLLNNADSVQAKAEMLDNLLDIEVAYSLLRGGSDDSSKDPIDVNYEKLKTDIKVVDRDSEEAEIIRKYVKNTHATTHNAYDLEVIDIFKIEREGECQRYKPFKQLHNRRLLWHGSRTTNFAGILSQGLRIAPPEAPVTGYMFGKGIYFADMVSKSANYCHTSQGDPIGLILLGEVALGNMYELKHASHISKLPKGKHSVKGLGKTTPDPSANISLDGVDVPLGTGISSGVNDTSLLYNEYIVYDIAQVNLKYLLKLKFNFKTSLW
Chain of full-length human PARP-1 [change] (human) (P09874 whole entry V762A): as above
Chain of N-parp (N-terminal half of PARP-1, amino acids 1-486) (P09874 1-486): as the sequence (P09874 1-486) above

Turning to “N-parp (N-terminal half of PARP-1, amino acids 1-486) (from UniProt P09874 1-486) (domain or fragment)”, the stoichiometry N in series [1] turned out to be 1.

“Nuc147, mononucleosome on 147-bp 601 DNA, labeled with ATTO 647N at histone H4 [change] (complex)”: the dissociation constant (Kd) in series [2] and in series [3] was over 500 nM throughout.

Consider Nuc165, for which the Kd amounted to 57.8 nM in series [4] and 2.2 nM in series [5].

“Nuc207, mononucleosome on 207-bp 601 DNA, labeled with ATTO 647N at histone H4 [change] (complex)” had a dissociation constant (Kd) in series [2] of 48.8 nM.

Consider “Nuc165, mononucleosome on 165-bp 601 DNA, labeled with ATTO 647N at histone H4 [change] (complex)”, for which the results for the Kd in series [2] and in series [3] were 57.8 nM and 2.2 nM, respectively.

In the case of Nuc178, the Kd in series [4] was found to be 238 nM; in series [5], 84.6 nM.

Take “full-length human PARP-1 [change] (from UniProt P09874) (enzyme)”: the stoichiometry N in series [6] and in series [7] was 1 throughout.

Turning to Nuc207, the dissociation constant Kd in series [4] was 48.8 nM; in series [5], 1 nM.
